Patent US20240390468A1, “SURVIVIN AND MAGE-A9 DUAL-TARGETED IMMUNOTHERAPY” (IMMUNOVACCINE TECHNOLOGIES INC., priority 2022, published 2024)

How the values were obtained:
Conditions in all cases: remark: other sources report otherwise
[1] = target: MHC class 1 allele A*02:01; test: REVEAL peptide-MHC binding assay, HLA-A*02:01
[2] = target: MHC class 1 allele A*02:01; test: REVEAL kinetic score, HLA-A*02:01
[3] = target: MHC class 1 allele A*02:01; test: REVEAL off-rate assay, HLA-A*02:01
[4] = target: MHC class 1 allele A*02:01; test: REVEAL R-score, HLA-A*02:01
[5] = target: MHC class 1 allele A*02:01; test: REVEAL on-rate assay, HLA-A*02:01

For STFKNWPFL [SurA24 (survivin peptide antigen HLA-A24, …)], which REVEAL score [1] is on record?
Its REVEAL score is 61.9.

What about the Kinetic score [2] of the same binder?
Its Kinetic score is 0.

What about the Off-rate T1/2 [3] of the same binder?
The Off-rate T1/2 was 7.2 min.

And the R-score [4]?
Its R-score is 0.

And the On-rate T1/2 [5]?
Its On-rate T1/2 is 31.5 h.
